Laboratory results: the supplement of paper PMC10567573

B1: ADAMTS4 (parent)
chain: SFRKFRYGYNNVVTIPAGATHILV

Variants of: B1
Assay: protein stability index of a GFP-peptide fusion (GPS, HEK-293T) (PSI 1-6); higher = more stable
Conditions: c terminus: a fixed tail appended
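Also: lentivirally expressed fusions sorted by FACS into six bins by GFP to DsRed ratio, PSI derived from sequencing read proportions per bin multiplied by bin number.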

Question: With SFRKFRYGYNNVPTIPAGATHILV as the variant, how does the protein stability index read?
Answer: 2.12

Question: For SFRKFRYNYNNVVTIPAGATHILV, which protein stability index is on record?
Answer: 3.3

Question: Which protein stability index does the source give for SFRKFRYPYNNVVTIPAGATHILV here?
Answer: 2.38

Question: Which protein stability index does the source give for SFRKFRYSYNNVVTIPAGATHILV here?
Answer: 3.58

Question: For SFRKFRYWYNNVVTIPAGATHILV, which protein stability index is on record?
Answer: 3.33

Question: For SFRKFRYRYNNVVTIPAGATHILV, which protein stability index is on record?
Answer: 2.96

Question: With SFRKFRYQYNNVVTIPAGATHILV as the variant, how does the protein stability index read?
Answer: 2.77

Question: For SFRKFRYLYNNVVTIPAGATHILV, which protein stability index is on record?
Answer: 2.38

Question: Which protein stability index does the source give for SFRKFRYKYNNVVTIPAGATHILV here?
Answer: 2.4

Question: For SFRKFRYTYNNVVTIPAGATHILV, which protein stability index is on record?
Answer: 2.71

Question: With SFRKFRYDYNNVVTIPAGATHILV as the variant, how does the protein stability index read?
Answer: 2.5

Question: For SFRKFRYEYNNVVTIPAGATHILV, which protein stability index is on record?
Answer: 2.1

Question: For SFRKFRYYYNNVVTIPAGATHILV, which protein stability index is on record?
Answer: 1.51

Question: For SFRKFRYMYNNVVTIPAGATHILV, which protein stability index is on record?
Answer: 2.79

Question: Which protein stability index does the source give for SFRKFRYAYNNVVTIPAGATHILV here?
Answer: 2.21

Question: With SFRKFRYCYNNVVTIPAGATHILV as the variant, how does the protein stability index read?
Answer: 2.46

Question: Which protein stability index does the source give for SFRKFRYFYNNVVTIPAGATHILV here?
Answer: 2.48

Question: With SFRKFRYIYNNVVTIPAGATHILV as the variant, how does the protein stability index read?
Answer: 4.84

Question: Which protein stability index does the source give for SFRKFRYHYNNVVTIPAGATHILV here?
Answer: 3.15

Question: With SFRKFRYVYNNVVTIPAGATHILV as the variant, how does the protein stability index read?
Answer: 2.24

Question: For SFRKFRYGINNVVTIPAGATHILV, which protein stability index is on record?
Answer: 2.46

Question: With SFRKFRYGWNNVVTIPAGATHILV as the variant, how does the protein stability index read?
Answer: 3.46

Question: With SFRKFRYGLNNVVTIPAGATHILV as the variant, how does the protein stability index read?
Answer: 2.75

Question: With SFRKFRYGSNNVVTIPAGATHILV as the variant, how does the protein stability index read?
Answer: 1.78

Question: With SFRKFRYGQNNVVTIPAGATHILV as the variant, how does the protein stability index read?
Answer: 2.01

Question: Which protein stability index does the source give for SFRKFRYGANNVVTIPAGATHILV here?
Answer: 3.15

Question: Which protein stability index does the source give for SFRKFRYGCNNVVTIPAGATHILV here?
Answer: 1.55

Question: Which protein stability index does the source give for SFRKFRYGKNNVVTIPAGATHILV here?
Answer: 2.07

Question: Which protein stability index does the source give for SFRKFRYGGNNVVTIPAGATHILV here?
Answer: 3.68

Question: For SFRKFRYGTNNVVTIPAGATHILV, which protein stability index is on record?
Answer: 2.05

Question: With SFRKFRYGENNVVTIPAGATHILV as the variant, how does the protein stability index read?
Answer: 1.71

Question: Which protein stability index does the source give for SFRKFRYGDNNVVTIPAGATHILV here?
Answer: 2.86

Question: For SFRKFRYGPNNVVTIPAGATHILV, which protein stability index is on record?
Answer: 1.76

Question: With SFRKFRYGNNNVVTIPAGATHILV as the variant, how does the protein stability index read?
Answer: 2.14

Question: Which protein stability index does the source give for SFRKFRYGFNNVVTIPAGATHILV here?
Answer: 1.72

Question: For SFRKFRYGRNNVVTIPAGATHILV, which protein stability index is on record?
Answer: 2.46

Question: Which protein stability index does the source give for SFRKFRYGVNNVVTIPAGATHILV here?
Answer: 1.65

Question: For SFRKFRYGHNNVVTIPAGATHILV, which protein stability index is on record?
Answer: 2.36

Question: With SFRKFRYGMNNVVTIPAGATHILV as the variant, how does the protein stability index read?
Answer: 1.9

Question: With SFRKFRIGYNNVVTIPAGATHILV as the variant, how does the protein stability index read?
Answer: 2.89

Question: With SFRKFRWGYNNVVTIPAGATHILV as the variant, how does the protein stability index read?
Answer: 2

Question: For SFRKFREGYNNVVTIPAGATHILV, which protein stability index is on record?
Answer: 2.63

Question: Which protein stability index does the source give for SFRKFRSGYNNVVTIPAGATHILV here?
Answer: 2.19

Question: For SFRKFRPGYNNVVTIPAGATHILV, which protein stability index is on record?
Answer: 2.83

Question: Which protein stability index does the source give for SFRKFRKGYNNVVTIPAGATHILV here?
Answer: 2.92

Question: Which protein stability index does the source give for SFRKFRRGYNNVVTIPAGATHILV here?
Answer: 2.8

Question: With SFRKFRLGYNNVVTIPAGATHILV as the variant, how does the protein stability index read?
Answer: 2.46

Question: Which protein stability index does the source give for SFRKFRNGYNNVVTIPAGATHILV here?
Answer: 2.43

Question: With SFRKFRMGYNNVVTIPAGATHILV as the variant, how does the protein stability index read?
Answer: 3.02

Question: Which protein stability index does the source give for SFRKFRAGYNNVVTIPAGATHILV here?
Answer: 3.52

Question: Which protein stability index does the source give for SFRKFRCGYNNVVTIPAGATHILV here?
Answer: 2.84

Question: Which protein stability index does the source give for SFRKFRDGYNNVVTIPAGATHILV here?
Answer: 2.07

Question: For SFRKFRHGYNNVVTIPAGATHILV, which protein stability index is on record?
Answer: 1.77

Question: Which protein stability index does the source give for SFRKFRQGYNNVVTIPAGATHILV here?
Answer: 2.24

Question: With SFRKFRVGYNNVVTIPAGATHILV as the variant, how does the protein stability index read?
Answer: 2.81

Question: With SFRKFRFGYNNVVTIPAGATHILV as the variant, how does the protein stability index read?
Answer: 3.04

Question: For SFRKFRTGYNNVVTIPAGATHILV, which protein stability index is on record?
Answer: 3.1

Question: With SFRKFRYGYNNVVPIPAGATHILV as the variant, how does the protein stability index read?
Answer: 1.6

Question: Which protein stability index does the source give for SFRKFRYGYNNVVKIPAGATHILV here?
Answer: 3.9

Question: With SFRKFRYGYNNVVQIPAGATHILV as the variant, how does the protein stability index read?
Answer: 2.2

Question: With SFRKFRYGYNNVVDIPAGATHILV as the variant, how does the protein stability index read?
Answer: 3.24

Question: For SFRKFRYGYNNVVMIPAGATHILV, which protein stability index is on record?
Answer: 3

Question: With SFRKFRYGYNNVVAIPAGATHILV as the variant, how does the protein stability index read?
Answer: 1.42

Question: Which protein stability index does the source give for SFRKFRYGYNNVVYIPAGATHILV here?
Answer: 2.27

Question: For SFRKFRYGYNNVVIIPAGATHILV, which protein stability index is on record?
Answer: 2.36

Question: For SFRKFRYGYNNVVGIPAGATHILV, which protein stability index is on record?
Answer: 1.33

Question: For SFRKFRYGYNNVVEIPAGATHILV, which protein stability index is on record?
Answer: 2.79

Question: For SFRKFRYGYNNVVWIPAGATHILV, which protein stability index is on record?
Answer: 3.53

Question: With SFRKFRYGYNNVVRIPAGATHILV as the variant, how does the protein stability index read?
Answer: 1.93

Question: For SFRKFRYGYNNVVVIPAGATHILV, which protein stability index is on record?
Answer: 2.61

Question: For SFRKFRYGYNNVVNIPAGATHILV, which protein stability index is on record?
Answer: 3.6

Question: Which protein stability index does the source give for SFRKFRYGYNNVVLIPAGATHILV here?
Answer: 2.38

Question: With SFRKFRYGYNNVVSIPAGATHILV as the variant, how does the protein stability index read?
Answer: 2.65

Question: With SFRKFRYGYNNVVCIPAGATHILV as the variant, how does the protein stability index read?
Answer: 1.81

Question: For SFRKFRYGYNNVVHIPAGATHILV, which protein stability index is on record?
Answer: 2.92

Question: Which protein stability index does the source give for SFRKFRYGYNNVVFIPAGATHILV here?
Answer: 2.74

Question: Which protein stability index does the source give for SFRKFRYGYTNVVTIPAGATHILV here?
Answer: 2.18

Question: With SFRKFRYGYMNVVTIPAGATHILV as the variant, how does the protein stability index read?
Answer: 2.49

Question: Which protein stability index does the source give for SFRKFRYGYVNVVTIPAGATHILV here?
Answer: 1.81

Question: Which protein stability index does the source give for SFRKFRYGYPNVVTIPAGATHILV here?
Answer: 1.86

Question: Which protein stability index does the source give for SFRKFRYGYRNVVTIPAGATHILV here?
Answer: 2.36

Question: For SFRKFRYGYYNVVTIPAGATHILV, which protein stability index is on record?
Answer: 2.02

Question: Which protein stability index does the source give for SFRKFRYGYSNVVTIPAGATHILV here?
Answer: 1.99

Question: For SFRKFRYGYKNVVTIPAGATHILV, which protein stability index is on record?
Answer: 1.81

Question: With SFRKFRYGYINVVTIPAGATHILV as the variant, how does the protein stability index read?
Answer: 3.13

Question: For SFRKFRYGYDNVVTIPAGATHILV, which protein stability index is on record?
Answer: 3.41

Question: For SFRKFRYGYWNVVTIPAGATHILV, which protein stability index is on record?
Answer: 1.6

Question: With SFRKFRYGYQNVVTIPAGATHILV as the variant, how does the protein stability index read?
Answer: 1.94

Question: With SFRKFRYGYFNVVTIPAGATHILV as the variant, how does the protein stability index read?
Answer: 2.9

Question: Which protein stability index does the source give for SFRKFRYGYGNVVTIPAGATHILV here?
Answer: 1.34

Question: With SFRKFRYGYHNVVTIPAGATHILV as the variant, how does the protein stability index read?
Answer: 1.84

Question: With SFRKFRYGYLNVVTIPAGATHILV as the variant, how does the protein stability index read?
Answer: 4.32

Question: Which protein stability index does the source give for SFRKFRYGYCNVVTIPAGATHILV here?
Answer: 2.65

Question: For SFRKFRYGYENVVTIPAGATHILV, which protein stability index is on record?
Answer: 1.56
